Kd data for one molecule are collected here from patent publication US8324357, “Universal fieldable assay with unassisted visual detection” (University of Southern California).

Data set [1] has as its target Russell's viper venom factor X activator (RVV-X) (UniProt Q7LZ61;Q4PRD1;Q4PRD2 Q7LZ61:189-619,Q4PRD1:24-146,Q4PRD2:25-158). As to the kind of experiment: EMSA. Conditions: tags: Haematologic Technologies. In general terms: In EMSA bound probe runs differently from free probe, usually more slowly.
Data set [2] deals with VEGF165 (Homo sapiens, UniProt P15692-4 P15692-4:27-191). As to the kind of experiment: EMSA; IC buffer, 3 mM CaCl2. The note with it: tags: R&D Systems or USB; chain copies: 2 (inferred).
Chain of VEGF165 (P15692 other isoform, or with tags, fused parts or gaps): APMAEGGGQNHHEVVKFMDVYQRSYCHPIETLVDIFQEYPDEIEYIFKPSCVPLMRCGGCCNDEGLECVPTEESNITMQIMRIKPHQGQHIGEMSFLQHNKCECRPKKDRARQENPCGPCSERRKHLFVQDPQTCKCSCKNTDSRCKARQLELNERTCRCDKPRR

Chain of Russell's viper venom factor X activator (RVV-X) (Q7LZ61 189-619, chain 1 of 3): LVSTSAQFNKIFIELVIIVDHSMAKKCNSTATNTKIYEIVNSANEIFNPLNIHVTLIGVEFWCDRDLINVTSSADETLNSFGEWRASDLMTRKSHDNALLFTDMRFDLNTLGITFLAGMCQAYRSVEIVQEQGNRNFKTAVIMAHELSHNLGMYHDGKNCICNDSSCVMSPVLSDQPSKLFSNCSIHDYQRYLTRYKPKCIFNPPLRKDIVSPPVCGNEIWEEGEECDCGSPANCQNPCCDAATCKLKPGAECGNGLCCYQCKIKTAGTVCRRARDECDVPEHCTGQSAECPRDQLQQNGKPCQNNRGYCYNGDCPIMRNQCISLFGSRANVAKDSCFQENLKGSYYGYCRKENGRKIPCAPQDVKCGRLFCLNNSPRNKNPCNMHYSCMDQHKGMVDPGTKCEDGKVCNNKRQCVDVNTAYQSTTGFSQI
Chain of Russell's viper venom factor X activator (RVV-X) (Q4PRD1 24-146, chain 2 of 3): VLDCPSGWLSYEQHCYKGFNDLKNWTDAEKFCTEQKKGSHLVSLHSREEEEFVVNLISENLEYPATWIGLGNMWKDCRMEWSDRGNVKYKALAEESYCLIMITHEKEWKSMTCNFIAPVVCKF
Chain of Russell's viper venom factor X activator (RVV-X) (Q4PRD2 25-158, chain 3 of 3): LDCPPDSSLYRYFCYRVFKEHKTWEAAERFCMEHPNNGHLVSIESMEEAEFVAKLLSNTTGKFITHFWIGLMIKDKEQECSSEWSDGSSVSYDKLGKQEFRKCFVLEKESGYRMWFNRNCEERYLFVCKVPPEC

B1: RNA132 (ssRNA)
RNA: GGGAGGGAAUCAGUGAAUGCUUAUACAUCCCUCCUUGAGCAGUCGAUUAGUUUCGACAGGAGGCUCAC
With B1, the Kd in data set [1] and in data set [2] was 5.7 nM throughout.
